Laboratory results from patent US20250313634A1 (WUXI BIOLOGICS SHANGHAI, published 2025).

Columns and labels:
Assay in all cases: capture ELISA on coated 1.14.4; relative to silent alanine substitutions
[1] = target: T1, hPD-L1_ECD.His point mutant L27A (human, UniProt Q9NZQ7 19-238)
T1 construct: extracellular domain
Procedure: (§1) After interacting with the supernatant that contains quantified PD-L1 mutant or human/mouse PD-L1_ECD.His protein (Sino Biological, China), HRP conjugated anti-His antibody (1:5000; Rockland Immunochemicals, Pottstown, PA) was added as detection antibody. Absorbance was normalized according to the average of control mutants. After setting an additional cutoff to the binding fold change (<0.55), the final determined epitope residues were identified.
(§2) The observed binding reductions most probably resulted from the instability or even collapse of hPD-L1 structure after alanine substitutions. After setting an additional cutoff to the binding fold change (<0.55), the final determined epitope residues were listed in Table 3.

[2] = target: T2, hPD-L1_ECD.His point mutant E237A (human, UniProt Q9NZQ7 19-238)
T2 construct: extracellular domain
Procedure: as §1, §2

[3] = target: T3, hPD-L1_ECD.His point mutant T180A (human, UniProt Q9NZQ7 19-238)
T3 construct: extracellular domain
Procedure: as §1, §2

[4] = target: T4, hPD-L1_ECD.His point mutant K75A (human, UniProt Q9NZQ7 19-238)
T4 construct: extracellular domain
Procedure: as §1, §2

[5] = target: T5, hPD-L1_ECD.His point mutant A51G (human, UniProt Q9NZQ7 19-238)
T5 construct: extracellular domain
Procedure: as §1, §2

[6] = target: T6, hPD-L1_ECD.His point mutant M36A (human, UniProt Q9NZQ7 19-238)
T6 construct: extracellular domain
Procedure: as §1, §2

[7] = target: T7, hPD-L1_ECD.His point mutant Q47A (human, UniProt Q9NZQ7 19-238)
T7 construct: extracellular domain
Procedure: as §1, §2

[8] = target: T8, hPD-L1_ECD.His point mutant K124A (human, UniProt Q9NZQ7 19-238)
T8 construct: extracellular domain
Procedure: as §1, §2

[9] = target: T9, hPD-L1_ECD.His point mutant H69A (human, UniProt Q9NZQ7 19-238)
T9 construct: extracellular domain
Procedure: as §1, §2

[10] = target: T10, hPD-L1_ECD.His point mutant P216A (human, UniProt Q9NZQ7 19-238)
T10 construct: extracellular domain
Procedure: as §1, §2

[11] = target: T11, hPD-L1_ECD.His point mutant K129A (human, UniProt Q9NZQ7 19-238)
T11 construct: extracellular domain
Procedure: as §1, §2

[12] = target: T12, hPD-L1_ECD.His point mutant D49A (human, UniProt Q9NZQ7 19-238)
T12 construct: extracellular domain
Procedure: as §1, §2

[13] = target: T13, hPD-L1_ECD.His point mutant N131A (human, UniProt Q9NZQ7 19-238)
T13 construct: extracellular domain
Procedure: as §1, §2

[14] = target: T14, hPD-L1_ECD.His point mutant V68A (human, UniProt Q9NZQ7 19-238)
T14 construct: extracellular domain
Procedure: as §1, §2

[15] = target: T15, hPD-L1_ECD.His point mutant E72A (human, UniProt Q9NZQ7 19-238)
T15 construct: extracellular domain
Procedure: as §1, §2

[16] = target: T16, hPD-L1_ECD.His point mutant K189A (human, UniProt Q9NZQ7 19-238)
T16 construct: extracellular domain
Procedure: as §1, §2

[17] = target: T17, hPD-L1_ECD.His point mutant L48A (human, UniProt Q9NZQ7 19-238)
T17 construct: extracellular domain
Procedure: as §1, §2

[18] = target: T18, hPD-L1_ECD.His point mutant K105A (human, UniProt Q9NZQ7 19-238)
T18 construct: extracellular domain
Procedure: as §1, §2

[19] = target: T19, hPD-L1_ECD.His point mutant H78A (human, UniProt Q9NZQ7 19-238)
T19 construct: extracellular domain
Procedure: as §1, §2

[20] = target: T20, hPD-L1_ECD.His point mutant G119A (human, UniProt Q9NZQ7 19-238)
T20 construct: extracellular domain
Procedure: as §1, §2

[21] = target: T21, hPD-L1_ECD.His point mutant P43A (human, UniProt Q9NZQ7 19-238)
T21 construct: extracellular domain
Procedure: as §1, §2

[22] = target: T22, hPD-L1_ECD.His point mutant V44A (human, UniProt Q9NZQ7 19-238)
T22 construct: extracellular domain
Procedure: as §1, §2

[23] = target: T23, hPD-L1_ECD.His point mutant Y56A (human, UniProt Q9NZQ7 19-238)
T23 construct: extracellular domain
Procedure: as §1, §2

[24] = target: T24, hPD-L1_ECD.His point mutant I199A (human, UniProt Q9NZQ7 19-238)
T24 construct: extracellular domain
Procedure: as §1, §2

[25] = target: T25, hPD-L1_ECD.His point mutant P24A (human, UniProt Q9NZQ7 19-238)
T25 construct: extracellular domain
Procedure: as §1, §2

[26] = target: T26, hPD-L1_ECD.His point mutant E31A (human, UniProt Q9NZQ7 19-238)
T26 construct: extracellular domain
Procedure: as §1, §2

T15 sequence (Q9NZQ7 19-238 E72A): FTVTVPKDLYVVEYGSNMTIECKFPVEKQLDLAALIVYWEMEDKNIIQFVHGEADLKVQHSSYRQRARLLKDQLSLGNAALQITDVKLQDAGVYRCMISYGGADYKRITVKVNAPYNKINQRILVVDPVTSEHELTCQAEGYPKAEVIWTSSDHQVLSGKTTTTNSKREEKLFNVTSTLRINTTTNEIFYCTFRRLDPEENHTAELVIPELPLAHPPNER
T19 sequence (Q9NZQ7 19-238 H78A): as the sequence (Q9NZQ7 19-238 E72A) above, with A54E, H60A counted along it
T8 sequence (Q9NZQ7 19-238 K124A): as the sequence (Q9NZQ7 19-238 E72A) above, with A54E, K106A counted along it
T13 sequence (Q9NZQ7 19-238 N131A): as the sequence (Q9NZQ7 19-238 E72A) above, with A54E, N113A counted along it
T23 sequence (Q9NZQ7 19-238 Y56A): as the sequence (Q9NZQ7 19-238 E72A) above, with Y38A, A54E counted along it
T14 sequence (Q9NZQ7 19-238 V68A): as the sequence (Q9NZQ7 19-238 E72A) above, with V50A, A54E counted along it
T16 sequence (Q9NZQ7 19-238 K189A): as the sequence (Q9NZQ7 19-238 E72A) above, with A54E, K171A counted along it
T3 sequence (Q9NZQ7 19-238 T180A): as the sequence (Q9NZQ7 19-238 E72A) above, with A54E, T162A counted along it
T12 sequence (Q9NZQ7 19-238 D49A): as the sequence (Q9NZQ7 19-238 E72A) above, with D31A, A54E counted along it
T25 sequence (Q9NZQ7 19-238 P24A): as the sequence (Q9NZQ7 19-238 E72A) above, with P6A, A54E counted along it
T18 sequence (Q9NZQ7 19-238 K105A): as the sequence (Q9NZQ7 19-238 E72A) above, with A54E, K87A counted along it
T1 sequence (Q9NZQ7 19-238 L27A): as the sequence (Q9NZQ7 19-238 E72A) above, with L9A, A54E counted along it
T5 sequence (Q9NZQ7 19-238 A51G): as the sequence (Q9NZQ7 19-238 E72A) above, with A33G, A54E counted along it
T10 sequence (Q9NZQ7 19-238 P216A): as the sequence (Q9NZQ7 19-238 E72A) above, with A54E, P198A counted along it
T6 sequence (Q9NZQ7 19-238 M36A): as the sequence (Q9NZQ7 19-238 E72A) above, with M18A, A54E counted along it
T2 sequence (Q9NZQ7 19-238 E237A): as the sequence (Q9NZQ7 19-238 E72A) above, with A54E, E219A counted along it
T11 sequence (Q9NZQ7 19-238 K129A): as the sequence (Q9NZQ7 19-238 E72A) above, with A54E, K111A counted along it
T7 sequence (Q9NZQ7 19-238 Q47A): as the sequence (Q9NZQ7 19-238 E72A) above, with Q29A, A54E counted along it
T9 sequence (Q9NZQ7 19-238 H69A): as the sequence (Q9NZQ7 19-238 E72A) above, with H51A, A54E counted along it
T24 sequence (Q9NZQ7 19-238 I199A): as the sequence (Q9NZQ7 19-238 E72A) above, with A54E, I181A counted along it
T4 sequence (Q9NZQ7 19-238 K75A): as the sequence (Q9NZQ7 19-238 E72A) above, with A54E, K57A counted along it
T26 sequence (Q9NZQ7 19-238 E31A): as the sequence (Q9NZQ7 19-238 E72A) above, with E13A, A54E counted along it
T17 sequence (Q9NZQ7 19-238 L48A): as the sequence (Q9NZQ7 19-238 E72A) above, with L30A, A54E counted along it
T21 sequence (Q9NZQ7 19-238 P43A): as the sequence (Q9NZQ7 19-238 E72A) above, with P25A, A54E counted along it
T22 sequence (Q9NZQ7 19-238 V44A): as the sequence (Q9NZQ7 19-238 E72A) above, with V26A, A54E counted along it
T20 sequence (Q9NZQ7 19-238 G119A): as the sequence (Q9NZQ7 19-238 E72A) above, with A54E, G101A counted along it

B1: 1.14.4 (antibody, V domains shown)
VH: EVQLLESGGGLVQPGGSLRLSCAASGFTFSSYAMSWVRQAPGKGLEWVSGISGSGGFTYYADSVKGRFTISRDNSKNTLYLQMNSLRAEDTAVYYCAKPPRGYNYGPFDYWGQGTLVTVSS
VL: SYVLTQPPSVSVAPGQTARITCGGNNIGSKSVHWYQQKPGQAPVLVVYDDSDRPSGIPERFSGSNSGNTATLTISRVEAGDEADYYCQVWDSSSDHVVFGGGTKLTVL
notes: Fully human monoclonal antibody with a human constant region of IgG4 isotype
- fold change [1]: 0.949 fold
- fold change [2]: 0.956 fold
- fold change [3]: 1 fold
- fold change [4]: 1.01 fold
- fold change [5]: 1.03 fold
- fold change [6]: 1.04 fold
- fold change [7]: 1.05 fold
- fold change [8]: 1.06 fold
- fold change [9]: 1.06 fold
- fold change [10]: 0.563 fold
- fold change [11]: 0.586 fold
- fold change [12]: 0.603 fold
- fold change [13]: 0.68 fold
- fold change [14]: 0.707 fold
- fold change [15]: 0.748 fold
- fold change [16]: 0.759 fold
- fold change [17]: 0.77 fold
- fold change [18]: 0.816 fold
- fold change [19]: 0.821 fold
- fold change [20]: 0.825 fold
- fold change [21]: 0.834 fold
- fold change [22]: 0.837 fold
- fold change [23]: 0.84 fold
- fold change [24]: 0.848 fold
- fold change [25]: 0.907 fold
- fold change [26]: 0.908 fold
